Source: patent US20120263745A1 (DUKE UNIVERSITY, published 2012)
Where no end group is shown, it is not given here.

T1: Recombinant Chlamydial Protease-like Activity Factor (CPAF), his-tagged, expressed in E. coli BL21 (DE3) from … (C. trachomatis, UniProt O84866 17-234; O84866 276-601)
T1 sequence 1: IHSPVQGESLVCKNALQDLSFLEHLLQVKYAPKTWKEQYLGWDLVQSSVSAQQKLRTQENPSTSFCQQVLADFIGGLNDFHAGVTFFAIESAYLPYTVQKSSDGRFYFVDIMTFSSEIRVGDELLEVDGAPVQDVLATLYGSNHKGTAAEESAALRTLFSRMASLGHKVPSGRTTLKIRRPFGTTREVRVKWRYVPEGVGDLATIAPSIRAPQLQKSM
T1 sequence 2: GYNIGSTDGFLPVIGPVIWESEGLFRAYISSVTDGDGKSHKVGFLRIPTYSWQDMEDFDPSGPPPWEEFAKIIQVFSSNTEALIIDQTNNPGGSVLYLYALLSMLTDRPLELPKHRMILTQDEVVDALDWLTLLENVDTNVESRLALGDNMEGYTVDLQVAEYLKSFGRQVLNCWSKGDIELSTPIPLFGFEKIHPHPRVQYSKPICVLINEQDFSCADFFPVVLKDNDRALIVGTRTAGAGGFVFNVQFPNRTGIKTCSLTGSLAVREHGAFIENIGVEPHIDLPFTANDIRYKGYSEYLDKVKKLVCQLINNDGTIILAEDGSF

T2: Abz-tagged model CPAF substrate Abz-V-R-L-R-S-S-V-P-G-V-NH2 (SEQ ID NO:9), derived from human vimentin
T2 chain: VRLRSSVPGV

T3: Peptide of SEQ ID NO:7 (CPAF inhibitory segment plus nine C-terminal arginines) (not fully specified)
T3 chain: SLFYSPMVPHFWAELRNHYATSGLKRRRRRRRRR

T4: Sequence-scrambled control peptide H-NFALSHFRLPLSTYKEMPYVSHWAGRRRRRRRRR-NH2 (SEQ ID NO:11)
T4 chain: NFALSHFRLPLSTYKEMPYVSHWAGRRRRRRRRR

B1: Peptide of SEQ ID NO:2 (CPAF inhibitory segment, SLFYSPMVPHFWAELRNHYATSGLK) (peptide)
peptide: SLFYSPMVPHFWAELRNHYATSGLK
modifications: not fully specified (C-terminus)
B2: Peptide of SEQ ID NO:7 (CPAF inhibitory segment plus nine C-terminal arginines) (peptide)
peptide: T3 chain
modifications: not fully specified (C-terminus)
B3: Recombinant Chlamydial Protease-like Activity Factor (CPAF), his-tagged, expressed in E. coli BL21 (DE3) from pET30b-CPAF (protein)
chain 1: T1 sequence 1
chain 2: T1 sequence 2

Columns and labels:
[1] = biological target: T1, Recombinant Chlamydial Protease-like …; experiment: cell-based or functional assay
[2] = biological target: Endogenous Ct288 from EB lysates
[3] = biological target: Recombinant Mcsc, T3S chaperone
[4] = biological target: T2, Abz-tagged model CPAF substrate …
[5] = biological target: Recombinant CdsQ, type-III secretion (T3S) core component
[6] = biological target: Recombinant Ct584, T3S needle component
[7] = biological target: Endogenous Tarp from EB lysates
[8] = biological target: T3, Peptide of SEQ ID NO:7 (CPAF inhibitory …)
[9] = biological target: T4, Sequence-scrambled control peptide …
[10] = biological target: Endogenous Ct694 from EB lysates

Binder | IC50, inhibition of CPAF cleavage of the Abz-tagged model substrate SEQ ID NO:9 (HPLC-based assay, 62.5 nM CPAF, 0.5 mM substrate) [1] [µM] | IC50, inhibition of CPAF cleavage of the Abz/3-nitrotyrosine model substrate SEQ ID NO:10 (FRET-based assay, 62.5 nM CPAF) [1] [µM] | fold greater inhibition than SEQ ID NO:2 (HPLC-based assay) [1] [fold] | fold greater inhibition than lactacystin (HPLC-based assay) [1] [fold] | incubation of EB lysates with recombinant CPAF, immunoblot (FIG. 7) [2] | incubation with recombinant CPAF, immunoblot (FIG. 5B) [3] | KM of CPAF proteolysis of the model substrate (HPLC-based assay) [4] | kcat of CPAF proteolysis of the model substrate (HPLC-based assay) [4] | kcat/KM of CPAF proteolysis of the model substrate (HPLC-based assay) [4] | incubation with recombinant CPAF, immunoblot (FIG. 5B) [5] | incubation with recombinant CPAF, immunoblot (FIG. 5B) [6] | incubation of EB lysates with recombinant CPAF, immunoblot (FIG. 7) [7] | CPAF cleavage of GST-chlamydial substrates in vitro (SDS-PAGE, FIG. 8E) [8] | CPAF cleavage of GST-chlamydial substrates in vitro (SDS-PAGE, FIG. 8E) [9] | incubation of EB lysates with recombinant CPAF, immunoblot (FIG. 7) [10]
B1 | 1.6 |  |  |  |  |  |  |  |  |  |  |  |  |  | 
B2 | 0.05 | 0.03 | ~30 | ~200 |  |  |  |  |  |  |  |  |  |  | 
B3 |  |  |  |  | Ct694, TARP and Ct288 were cleaved | Recombinant CPAF does not cleave chlamydial proteins that are resistant to processing by cytosols form infected HeLa cells | KM=0.88 mM | kcat=13.2 5^-1 | kcat/KM=1.5×10^4 M^-1s^-1 | Recombinant CPAF does not cleave chlamydial proteins that are resistant to processing by cytosols form infected HeLa cells | Recombinant CPAF does not cleave chlamydial proteins that are resistant to processing by cytosols form infected HeLa cells | specifically degraded | broadly inhibited degradation of CPAF substrates in vitro and in vivo | but not a scrambled sequence of equal molecular weight (SEQ ID NO:11) | specifically degraded
